Results from patent US20250188166A1 (BRIGHT PEAK THERAPEUTICS, published 2025).

T1: IL-18R on HEK-Blue IL18R reporter cells (UniProt Q13478 19-541; O95256 20-599)
T1 sequence (looked up) 1: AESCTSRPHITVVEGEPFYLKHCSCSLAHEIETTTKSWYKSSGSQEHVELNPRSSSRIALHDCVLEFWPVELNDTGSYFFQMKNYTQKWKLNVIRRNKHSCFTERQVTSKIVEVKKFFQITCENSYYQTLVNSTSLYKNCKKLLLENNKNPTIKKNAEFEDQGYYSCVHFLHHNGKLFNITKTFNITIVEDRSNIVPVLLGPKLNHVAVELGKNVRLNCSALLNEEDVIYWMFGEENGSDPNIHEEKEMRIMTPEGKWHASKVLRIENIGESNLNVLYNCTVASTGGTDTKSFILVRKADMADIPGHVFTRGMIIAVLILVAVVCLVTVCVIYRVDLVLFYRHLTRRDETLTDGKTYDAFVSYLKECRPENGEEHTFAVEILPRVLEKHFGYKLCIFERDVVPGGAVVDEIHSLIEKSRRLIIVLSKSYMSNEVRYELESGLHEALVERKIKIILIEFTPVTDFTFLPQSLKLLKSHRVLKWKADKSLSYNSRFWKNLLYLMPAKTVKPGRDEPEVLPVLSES
T1 sequence (looked up) 2: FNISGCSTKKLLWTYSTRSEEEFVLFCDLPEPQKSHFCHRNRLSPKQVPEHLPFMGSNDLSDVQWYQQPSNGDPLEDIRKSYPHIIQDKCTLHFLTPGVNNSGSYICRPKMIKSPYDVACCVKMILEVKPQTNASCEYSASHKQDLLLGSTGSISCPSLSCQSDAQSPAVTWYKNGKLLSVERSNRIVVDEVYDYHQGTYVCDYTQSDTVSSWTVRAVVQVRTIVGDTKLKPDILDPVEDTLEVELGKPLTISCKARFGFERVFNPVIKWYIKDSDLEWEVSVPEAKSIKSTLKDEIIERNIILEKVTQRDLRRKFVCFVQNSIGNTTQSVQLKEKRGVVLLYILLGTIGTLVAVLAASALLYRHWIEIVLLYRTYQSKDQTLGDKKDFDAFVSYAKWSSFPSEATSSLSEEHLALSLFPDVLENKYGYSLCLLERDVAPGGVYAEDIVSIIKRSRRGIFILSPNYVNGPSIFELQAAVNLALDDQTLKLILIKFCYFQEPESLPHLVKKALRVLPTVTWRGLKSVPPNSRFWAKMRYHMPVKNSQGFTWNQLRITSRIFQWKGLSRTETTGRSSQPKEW

B1: IL-18 polypeptide C142 (ligand)
chain: MFGKLKSKLSIIRNLNDQVLFIDQGNRPLFEDMTDSDARDNAPRTIFIISMYADSQPRGMAVAISVKCEKISTLSAENKIISFKEMNPPDNIKDTKSDIIFFQRSVPGHDNKMQFESSSYEGYFLAAEKERDLFKLILKKEDELGDRSIMFTVQNED
B2: IL-18 polypeptide C146 (SEQ ID NO: 68) (ligand)
chain: YFGKLESKLSIIRNLNDQVLFIDQGNRPLFEDMTDSDARDNAPRTIFIISGYADSQPRGMAVTISVKCEKISTLSAENKIISFKEMNPPDNIKDTKSDIIFFQRSVPGHDNKMQFESSSYEGYFLAAEKERDLFKLILKKEDELGDRSIMFTVQNED
B3: IL-18 polypeptide C155 (ligand)
chain: YFGKLESKLSIIRNLNDQVLFIDQGNRPLFEDMTDSDARANAPRTIFIISMYADSQPRGMAVTISVKCEKISTLSAENKIISFKEMNPPDNIKDTKSDIIFFQRSVPGHDNKMQFESSSYEGYFLAAEKERDLFKLILKKEDELGDRSIMFTVQNED
B4: IL-18 polypeptide C154 (ligand)
chain: YFGKLESKLSIIRNLNDQVLFIDQGNRPLFADMTDSAARDNAPRTIFIISMYADSQPRGMAVTISVKCEKISTLSAENKIISFKEMNPPDNIKDTKSDIIFFQRSVPGHDNKMQFESSSYEGYFLAAEKERDLFKLILKKEDELGDRSIMFTVQNED
B5: IL-18 polypeptide C161 (ligand)
chain: YFGKLESRLSIIRNLNDQVLFIDQGNRPLFEDMTDSDARDNAPRTIFIISMYKDSQPRGMAVTISVKCEKISTLSAENKIISFKEMNPPDNIKDTKSDIIFFERSVPGHDNKMQFESSSYEGYFLAAEKERDLFKLILKKEDELGDRSIMFTVQNED
B6: IL-18 polypeptide C156 (ligand)
chain: YFGKLESKLSIIRNLNDQVLFIDQGNRPLFEDMTDSDARDAAPRTIFIISMYADSQPRGMAVTISVKCEKISTLSAENKIISFKEMNPPDNIKDTKSDIIFFQRSVPGHDNKMQFESSSYEGYFLAAEKERDLFKLILKKEDELGDRSIMFTVQNED
B7: IL-18 polypeptide C153 (ligand)
chain: YFGKLESKLSIIRNLNDQVLFIDQGNRPLFEDMTDSAARDNAPRTIFIISMYADSQPRGMAVTISVKCEKISTLSAENKIISFKEMNPPDNIKDTKSDIIFFQRSVPGHDNKMQFESSSYEGYFLAAEKERDLFKLILKKEDELGDRSIMFTVQNED
B8: IL-18 polypeptide C144 (ligand)
chain: YFGKLESKLSIIRNLNDQVLFIDQGNRPLFEDMTDSDARDNAPRTIFIISMYADSQPRGMAVAISVKCEKISTLSAENKIISFKEMNPPDNIKDTKSDIIFFQRSVPGHDNKMQFESSSYEGYFLAAEKERDLFKLILKKEDELGDRSIMFTVQNED
B9: IL-18 polypeptide C151 (ligand)
chain: YFGKLESKLSIIRNLNDQVLFIDQGNRPLFEDMTASDARDNAPRTIFIISMYADSQPRGMAVTISVKCEKISTLSAENKIISFKEMNPPDNIKDTKSDIIFFQRSVPGHDNKMQFESSSYEGYFLAAEKERDLFKLILKKEDELGDRSIMFTVQNED
B10: IL-18 polypeptide C157 (ligand)
chain: YFGKLESKLSIIRNLNDQVLFIDQGNRPLFEDMTDSDARDNAPRTIFIISMYADSQPRGMAVTISVKCEKISTLSAENKIISFKEMNPPDNIKDTKSDIIFFQRSVPGHDNKMQFESSSYEGYFLAAEKERALFKLILKKEDELGDRSIMFTVQNED
B11: IL-18 polypeptide C162 (ligand)
chain: YFGKLESELSIIRNLNDQVLFIDQGNRPLFEDMTDSDARDNAPRTIFIISMYKDSQPRGMAVTISVKCEKISTLSAENKIISFKEMNPPDNIKDTKSDIIFFRRSVPGHDNKMQFESSSYEGYFLAAEKERDLFKLILKKEDELGDRSIMFTVQNED
B12: IL-18 polypeptide C152 (ligand)
chain: YFGKLESKLSIIRNLNDQVLFIDQGNRPLFEDMTDADARDNAPRTIFIISMYADSQPRGMAVTISVKCEKISTLSAENKIISFKEMNPPDNIKDTKSDIIFFQRSVPGHDNKMQFESSSYEGYFLAAEKERDLFKLILKKEDELGDRSIMFTVQNED
B13: IL-18 polypeptide C160 (ligand)
chain: YFGKLESKLSIIRNLNDQVLFIDQGNRPLFEDMTDSDARDNAPRTIFIISMYADSQPRGMAVTISVKCEKISTLSAENKIISFKEMNPPDNIKDTKSDIIFFQRSVPGHANKMQFESSSYEGYFLAAEKERDLFKLILKKEDELGDRSIMFTVQNED
B14: IL-18 polypeptide C150 (ligand)
chain: YFGKLESKLSIIRNLNDQVLFIDQGNRPLFEDMADSDARDNAPRTIFIISMYADSQPRGMAVTISVKCEKISTLSAENKIISFKEMNPPDNIKDTKSDIIFFQRSVPGHDNKMQFESSSYEGYFLAAEKERDLFKLILKKEDELGDRSIMFTVQNED
B15: IL-18 polypeptide C158 (ligand)
chain: YFGKLESKLSIIRNLNDQVLFIDQGNRPLFEDMTDSDARDNAPRTIFIISMYADSQPRGMAVTISVKCEKISTLSAENKIISFKEMNPPDNIKDTKSDIIFFQRSVPAHDNKMQFESSSYEGYFLAAEKERDLFKLILKKEDELGDRSIMFTVQNED
B16: IL-18 polypeptide C149 (ligand)
chain: YFGKLESKLSIIRNLNDQVLFIDQGNRPLFADMTDSDARDNAPRTIFIISMYADSQPRGMAVTISVKCEKISTLSAENKIISFKEMNPPDNIKDTKSDIIFFQRSVPGHDNKMQFESSSYEGYFLAAEKERDLFKLILKKEDELGDRSIMFTVQNED
B17: IL-18 polypeptide C159 (ligand)
chain: YFGKLESKLSIIRNLNDQVLFIDQGNRPLFEDMTDSDARDNAPRTIFIISMYADSQPRGMAVTISVKCEKISTLSAENKIISFKEMNPPDNIKDTKSDIIFFQRSVPGADNKMQFESSSYEGYFLAAEKERDLFKLILKKEDELGDRSIMFTVQNED
B18: IL-18 polypeptide C147 (ligand)
chain: YFGKLESKLSIIRNLNDQVLFIDQGNRPLFEDMTDSDARDNAPRTIFIISMYAASQPRGMAVTISVKCEKISTLSAENKIISFKEMNPPDNIKDTKSDIIFFQRSVPGHDNKMQFESSSYEGYFLAAEKERDLFKLILKKEDELGDRSIMFTVQNED
B19: IL-18 polypeptide C148 (ligand)
chain: YAGKLESKLSIIRNLNDQVLFIDQGNRPLFEDMTDSDARDNAPRTIFIISMYADSQPRGMAVTISVKCEKISTLSAENKIISFKEMNPPDNIKDTKSDIIFFQRSVPGHDNKMQFESSSYEGYFLAAEKERDLFKLILKKEDELGDRSIMFTVQNED
B20: IL-18 polypeptide C163 (ligand)
chain: YFGKLESKLSIIRNLNDQVLFIDQGNRPLFEDMTDSDARDNAPRTIFIISMYKDSQPRGMAVTISVKCEKISTLSAENKIISFKEMNPPDNIKDTKSDIIFFKRSVPGHDNKMQFESSSYEGYFLAAEKERDLFKLILKKEDELGDRSIMFTVQNED
B21: IL-18 polypeptide C145 (ligand)
chain: YFGKLESKLSIIRNLNDQVLFIDQGNRPLFEDMTDSDARDNAPRTIFIISMYADAQPRGMAVTISVKCEKISTLSAENKIISFKEMNPPDNIKDTKSDIIFFQRSVPGHDNKMQFESSSYEGYFLAAEKERDLFKLILKKEDELGDRSIMFTVQNED
B22: IL-18 polypeptide C143 (ligand)
chain: YFGKLESKLSIIRNLNDQVLFIDQGNRPLFEDMTDSDARDNAPRTIFIISMYADSQPRGMAVTISVKCEKISTLSAENKIISFKEMNPPDNIKDTKSDIIFFQRSVPGHDNKMQFESSSYEGYFLAAEKERDLFKLILKKEDELGDRSIMFTVQNED

Biological target: T1, IL-18R on HEK-Blue IL18R reporter cells
Assay: cell-based or functional assay

Binder	EC50, HEK-Blue IL18R SEAP reporter
B1	0.02 pM
B2	0.8 pM
B3	0.52 pM
B4	11.9 pM
B5	2.01 pM
B6	11.7 pM
B7	14.1 pM
B8	0.17 pM
B9	13.1 pM
B10	1.95 pM
B11	2.3 pM
B12	0.25 pM
B13	2.02 pM
B14	0.7 pM
B15	15.6 pM
B16	6.6 pM
B17	19.5 pM
B18	1 pM
B19	7.28 pM
B20	1.5 pM
B21	3.63 pM
B22	0.98 pM
